Results taken from paper PMC10702856 (Antibody Therapeutics, 2023).

Legend:
[1] = target: ADDoCoV (ADDomer-COVID-19 vaccine) nanoparticle (human adenovirus serotype Ad3 | …, UniProt P0DTC2)
[2] = target: SARS-CoV-2 S receptor binding domain, Ancestral (SARS-CoV-2, Ancestral strain, UniProt P0DTC2)

B1: ADAH14 (VHH)
VHH: QVQLQESGGGLVQAGGSLRLSCAASGSYFFHALMGWFRQAPVKEREFVASITAVPGATYYRRCTDSVKGRFTISRDNAKNTVYLQMNSLKPEDTAVYYCALATHSNRHTPITYWGQGTQVTVSS
- binding result [1]: binds
- binding result [2]: binds

B2: ADAH15 (VHH)
VHH: QVQLQESGGGLVQAGGSLRLSCAASGTTYLAANMGWFRQAPGKEREFVAAITFFHNPTVYYADSVKGRFTISRDNAKNTVYLQMNSLKPEDTAVYYCAATVLVRDRIHFSHSIGIRYWGQGTQVTVSS
- binding result [1]: binds
- binding result [2]: binds
